From patent US20220010018A1 (ALBERT EINSTEIN COLLEGE OF MEDICINE, published 2022)
Blank lines part the entries; values can stand above or below the binder they belong to.

Columns and labels:
Mouse B7-H3 = target: T1, Mouse B7-H3 (mouse, UniProt Q8VE98 29-244, limits assumed); assay: Surface Plasmon Resonance
T1 construct: The construct used in SPR is not described; also called mouse B7-H3 (SPR antigen)
T1 sequence (looked up): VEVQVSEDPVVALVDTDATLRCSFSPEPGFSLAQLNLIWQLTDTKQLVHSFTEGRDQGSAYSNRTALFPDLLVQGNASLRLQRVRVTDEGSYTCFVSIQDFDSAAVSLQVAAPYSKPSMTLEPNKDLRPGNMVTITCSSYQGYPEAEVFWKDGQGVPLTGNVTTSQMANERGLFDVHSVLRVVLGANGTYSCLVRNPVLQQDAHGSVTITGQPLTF

Human B7-H3 = target: T2, Human B7-H3 (human, UniProt Q5ZPR3 29-461, limits assumed); assay: Surface Plasmon Resonance
T2 construct: also called human B7-H3 (SPR antigen)
T2 sequence: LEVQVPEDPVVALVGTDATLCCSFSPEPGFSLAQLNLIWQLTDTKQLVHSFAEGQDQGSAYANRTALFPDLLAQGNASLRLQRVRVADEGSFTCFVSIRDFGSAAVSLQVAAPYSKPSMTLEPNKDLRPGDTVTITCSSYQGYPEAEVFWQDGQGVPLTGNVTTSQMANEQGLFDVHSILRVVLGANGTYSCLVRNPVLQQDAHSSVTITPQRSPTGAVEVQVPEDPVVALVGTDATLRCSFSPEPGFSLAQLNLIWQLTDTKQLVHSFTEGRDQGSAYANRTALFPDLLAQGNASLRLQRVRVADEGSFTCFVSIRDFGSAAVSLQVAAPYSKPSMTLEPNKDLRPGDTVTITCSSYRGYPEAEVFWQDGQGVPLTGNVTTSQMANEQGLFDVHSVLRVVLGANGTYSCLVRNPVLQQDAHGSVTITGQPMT

Kd (Mouse B7-H3): 15.4 nM | koff (Mouse B7-H3): 0.0184 s⁻¹ | kon (Mouse B7-H3): 1.19e+06 M⁻¹ s⁻¹ | Kd (Human B7-H3): 8.23 nM | koff (Human B7-H3): 0.00509 s⁻¹ | kon (Human B7-H3): 618000 M⁻¹ s⁻¹
B1: monoclonal antibody 12B4 (antibody, IgG2b, V domains shown)
VH: QVQLQQPGAELVKPGASVKLSCKASGYTFTSYWMHWVKQRPGQGLEWIGMIHPNSGSTNYNEKFKSKATLTVDKSSSTAYMQLSSLTSEDSAVYYCARYYYGSSYAMDYWGQGTSVTVS
VL: QIVLTQSPAIMSASPGEKVTITCSASSSVSYMHWFQQKPGTSPKLWIYSTSNLASGVPARFSGSGSGTSYSLTISRMEAEDAATYYCQQRSSYPYTFGGGTKLEIKR
notes: Residue limits come from CLM-00006; also called mAb 12B4

Kd (Mouse B7-H3): 4.01 nM | koff (Mouse B7-H3): 0.00237 s⁻¹ | kon (Mouse B7-H3): 592000 M⁻¹ s⁻¹ | Kd (Human B7-H3): 0.3 nM | koff (Human B7-H3): 0.000459 s⁻¹ | kon (Human B7-H3): 1.51e+06 M⁻¹ s⁻¹
B2: monoclonal antibody 8B12 (antibody, IgG3, V domains shown)
VH: QVQLQQPGAELVKPGASVKMSCKASGYTFTSYWITWVKQRPGQGLEWIGDIYPGSGSTNYNEKFKSKATLTVDTSSSTAYMQLSSLTSEDSAVYYCARGGTRFSPFAYWGQGTLVTVSA
VL: DVLMTQTPLSLPVSLGDQASISCRSSQSIVHSNGNTYLEWYLQKPGQSPKLLIYKVSNRFSGVPDRFSGSGSGTDFTLKISRVEAEDLGVYYCFQGSHVPWTFGGGTKLEIKR
notes: Residue limits come from CLM-00006; also called mAb 8B12
